From patent publication US20220406376A1 (MacroGenics, published 2022)
Numbering of substitutions follows the chain as printed.

T1: extracellular portion of cynomolgus monkey CD137 fused to a histidine-containing peptide (cynomolgus monkey, UniProt A9YYE7 24-186)
T1 construct: extracellular domain; also called cynoCD137
T1 sequence: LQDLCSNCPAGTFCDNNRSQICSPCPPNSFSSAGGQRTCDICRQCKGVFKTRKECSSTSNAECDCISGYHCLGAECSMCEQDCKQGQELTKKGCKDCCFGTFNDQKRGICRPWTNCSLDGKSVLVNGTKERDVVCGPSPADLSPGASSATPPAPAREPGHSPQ

B1: DART-G3 (bispecific antibody, human IgG1, kappa, L234A L235A)
heavy: QVQLVQSGAEVKKPGASVKVSCKASGYTFTNYGMNWVRQAPGQGLEWMGWINTNIGEPTYTEEFKGRVTMTRDTSISTAYMELSRLRSDDTAVYYCARDDGYGNRVSYWGQGTLVTVSSASTKGPSVFPLAPSSKSTSGGTAALGCLVKDYFPEPVTVSWNSGALTSGVHTFPAVLQSSGLYSLSSVVTVPSSSLGTQTYICNVNHKPSNTKVDKRVEPKSCDKTHTCPPCPAPEAAGGPSVFLFPPKPKDTLMISRTPEVTCVVVDVSHEDPEVKFNWYVDGVEVHNAKTKPREEQYNSTYRVVSVLTVLHQDWLNGKEYKCKVSNKALPAPIEKTISKAKGQPREPQVYTLPPSREEMTKNQVSLSCAVKGFYPSDIAVEWESNGQPENNYKTTPPVLDSDGSFFLVSKLTVDKSRWQQGNVFSCSVMHEALHNRYTQKSLSLSPGK
light: DIQMTQSPSSLSASVGDRVTITCKASQDISNYLSWFQQKPGKAPKTLIYRANRLQSGVPSRFSGSGSGTDFTLTISSLQPEDFATYYCLQHDEFPWTFGQGTKLEIKRTVAAPSVFIFPPSDEQLKSGTASVVCLLNNFYPREAKVQWKVDNALQSGNSQESVTEQDSKDSTYSLSSTLTLSKADYEKHKVYACEVTHQGLSSPVTKSFNRGEC
chain 1: QVQLVQSGAEVKKPGASVKVSCKASGYTFTNYGMNWVRQAPGQGLEWMGWINTNIGEPTYTEEFKGRVTMTRDTSISTAYMELSRLRSDDTAVYYCARDDGYGNRVSYWGQGTLVTVSSASTKGPSVFPLAPSSKSTSGGTAALGCLVKDYFPEPVTVSWNSGALTSGVHTFPAVLQSSGLYSLSSVVTVPSSSLGTQTYICNVNHKPSNTKVDKRVEPKSCDKTHTCPPCPAPEAAGGPSVFLFPPKPKDTLMISRTPEVTCVVVDVSHEDPEVKFNWYVDGVEVHNAKTKPREEQYNSTYRVVSVLTVLHQDWLNGKEYKCKVSNKALPAPIEKTISKAKGQPREPQVYTLPPSREEMTKNQVSLWCLVKGFYPSDIAVEWESNGQPENNYKTTPPVLDSDGSFFLYSKLTVDKSRWQQGNVFSCSVMHEALHNHYTQKSLSLSPGGGGSGGGSGGGDIQMTQSPSSLSASVGDRVTITCRPSQDISNYLNWYQQKPDKTVKLLIYYTSRLRSGVPSRFSGSGSGTDFTFTISSLQPEDIATYFCQQGDTLPYTFGQGTKLEIKGGGSGGGGQVQVQLVQSGAEVKKPGASVKVSCKASGYTFTSYWINWVKQAPGQGLEWIGNIYPSDSYTNYNQKFKDKATITADKSTSTAYMELSSLRSEDTAVYYCTRDYGSAYSYSLWGQGTTVTVSSGGCGGGEVAALEKEVAALEKEVAALEKEVAALEK
chain 2: DIQMTQSPSSLSASVGDRVTITCRPSQDISNYLNWYQQKPDKTVKLLIYYTSRLRSGVPSRFSGSGSGTDFTFTISSLQPEDIATYFCQQGDTLPYTFGQGTKLEIKGGGSGGGGQVQLVQSGAEVKKPGASVKVSCKASGYTFTSYWINWVKQAPGQGLEWIGNIYPSDSYTNYNQKFKDKATITADKSTSTAYMELSSLRSEDTAVYYCTRDYGSAYSYSLWGQGTTVTVSSGGCGGGKVAALKEKVAALKEKVAALKEKVAALKE
notes: also called optimized DART-G3
B2: DART-G4 (bispecific antibody, human IgG1, kappa, L234A L235A)
heavy: B1 heavy
light: B1 light
chain 1: B1 chain 1 with A679S, S683N, L684V
chain 2: B1 chain 2 with A218S, S222N, L223V
notes: also called optimized DART-G4
B3: DART-G2 (bispecific antibody, human IgG1, kappa, L234A L235A)
heavy: B1 heavy
light: B1 light
chain 1: B1 chain 1 with Y682M, L684T
chain 2: B1 chain 2 with Y221M, L223T
notes: also called optimized DART-G2

Each binder was assayed against T2, HER2/neu on the surface of target cells (N87, JIMT-1, MCF-7, MDA-MB231) (UniProt P04626 23-1255, limits assumed) (assay: flow cytometry on N87 cells, anti-hFc APC MFI).
T2 construct: whole, on cells

Binder | EC50 (read off the curve) [nM]
B1 | ~0.5
B2 | ~0.5
B3 | ~0.5

Each binder was assayed against T2, HER2/neu on the surface of target cells … (assay: flow cytometry on MCF-7 cells, anti-hFc APC MFI).

Binder | EC50 (read off the curve) [nM]
B1 | ~0.09
B2 | ~0.09
B3 | ~0.09

These binders were tested against T2, HER2/neu on the surface of target cells … (assay: flow cytometry on JIMT-1 cells, anti-hFc APC MFI).

Binder | EC50 (read off the curve) [nM]
B1 | ~0.2
B2 | ~0.2
B3 | ~0.2

Each binder was assayed against T3, CD137 on the surface of cells (activated human T cells; engineered CHO cells) (human, UniProt Q07011 24-255) (assay: flow cytometry on CD137-expressing CHO cells (CHO/137), anti-hFc APC MFI).
T3 construct: whole, on cells; also called human CD137; cell surface expressed CD137
T3 sequence (Q07011 24-255, change not shown): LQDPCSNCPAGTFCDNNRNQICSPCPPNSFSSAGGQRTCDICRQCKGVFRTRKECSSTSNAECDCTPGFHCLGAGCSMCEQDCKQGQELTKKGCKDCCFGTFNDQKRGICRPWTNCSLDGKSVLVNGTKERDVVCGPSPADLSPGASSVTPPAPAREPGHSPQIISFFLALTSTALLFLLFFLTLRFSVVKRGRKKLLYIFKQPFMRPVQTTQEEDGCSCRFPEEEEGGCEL

Binder | EC50 (read off the curve) [µg/mL]
B1 | ~0.02
B2 | ~0.02
B3 | ~0.02

The binders below were run against T4, extracellular portion of human CD137 fused to a histidine-containing peptide (human, UniProt Q07011 24-186) (assay: SPR (BIACORE); molecule captured on anti-human Fc; huCD137 6.25-100 nM; 1:1 Langmuir).
T4 construct: extracellular domain; also called huCD137; His-tagged soluble human CD137
Description: (§1) The amino acid sequences of these clones were incorporated into the 5 chain diabody DART-G to yield optimized DART-G molecules (designated as DART-G1, DART-G2; DART-G3, and DART-G4). The binding affinity of DART-G2, DART-G3, and DART-G4 were evaluated via BIAcore (Table 11). For such evaluation, His-tagged soluble human CD137 (huCD137) or cynomolgus monkey CD137 (cynoCD137) (containing an extracellular portion of human or cynomolgus monkey CD137 fused to a histidine-containing peptide) was passed over a surface coated with immobilized antibody. Briefly, each test molecule was captured onto an F(ab)₂ goat-anti-human Fc-coated surface and then incubated in the presence of different concentrations (6.25-100 nM) of huCD137 or cynoCD137. The kinetics of binding were determined via BIACORE® analysis binding (normalized 1:1 Langmuir binding model).

Binder | Kd [nM] | koff [s⁻¹] | kon [M⁻¹ s⁻¹]
B1 | 64 | 0.014 | 220000
B2 | 28 | 0.0087 | 310000
B3 | 60 | 0.021 | 350000

These binders were tested against T1, extracellular portion of cynomolgus … (assay: SPR (BIACORE); molecule captured on anti-human Fc; cynoCD137 6.25-100 nM; 1:1 Langmuir).
Description: as §1

Binder | Kd [nM] | kon [M⁻¹ s⁻¹]
B1 | 78 | 230000
B2 | 40 | 350000
B3 | 64 | 390000

These binders were tested against T3, CD137 on the surface of cells … (assay: flow cytometry on activated pan T cells (donor D46433, CD8 PE), anti-hFc APC MFI).

Binder | EC50 (read off the curve) [nM]
B1 | ~0.1
B2 | ~0.08
B3 | ~0.1

The binders below were run against T3, CD137 on the surface of cells … (assay: flow cytometry on activated CD8+ T cells (donor D53781, CD8 FITC), anti-hFc APC MFI).

Binder | EC50 (read off the curve) [µg/mL]
B1 | ~0.02
B2 | ~0.02
B3 | ~0.02

The binders below were run against T1, extracellular portion of cynomolgus … (assay: SPR (BIACORE); molecule captured on anti-human Fc; cynoCD137 6.25-100 nM; column head ×10^-4 applied as printed).
Description: as §1

Binder | koff [s⁻¹]
B1 | 0.018
B2 | 0.014
B3 | 0.025
